Laboratory results from the supplement of paper PMC10567573.
± gives the standard deviation.

Test: protein stability index of a GFP-peptide fusion (GPS, HEK-293T) (PSI 1-6); higher = more stable
[1] = treatment: DMSO, c terminus: a fixed tail appended
[2] = treatment: MLN4924 1 uM, 8 h, c terminus: a fixed tail appended
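Further: 24-mer peptide tiles fused after GFP, lentivirally expressed, FACS-sorted into six equal bins by GFP/DsRed ratio, decoded by Illumina sequencing, PSI is the read-weighted mean bin number.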

Sequence	protein stability index [1]	protein stability index [2]	protein stability index (treatment: DMSO, c terminus: native)	protein stability index (treatment: MLN4924 1 uM, 8 h, c terminus: native)
EATSHYIIELLASDAGSPSLHKHL [PCDHGC5]	2.08 ± 0.064	2.12 ± 0.11	–	–
EAWRLVEEGIVSPSDLDLVMSEGL [CRYL1]	3.91 ± 0.058	3.9 ± 0.16	–	–
ECQLYPRRSQQQQVPVVDFQAELR [SNURF]	4.3 ± 0.18	4.31 ± 0.084	–	–
EDDKLVVECVMKGVTSTRVYERA [FABP4]	–	–	3.03 ± 0.29	3.75 ± 0.42
EDEGVDLSEGSSNEDEDLGPCEGP [SPANXN3]	5.39 ± 0.44	5.41 ± 0.23	–	–
EDSLATVKVVLIPVGQEIVIPFKV [IQUB]	2.86 ± 1.3	2.43 ± 0.98	–	–
EEALENGPKESLPVIAAPSMWTRP [ACBD3]	4.64 ± 0.12	4.47 ± 0.24	–	–
EEERAFWMENNGHVAGEQMLEDGP [CCDC70]	5.37 ± 0.35	5.2 ± 0.45	–	–
EELAKKRFKDKSSEEAVREVHRLI [TPPP]	3.54 ± 0.24	3.41 ± 0.27	–	–
EELAYLKKNHEEEMKEFSSQLAGQ [KRT15]	5.22 ± 0.41	5.05 ± 0.28	–	–
EELEFQYRRVNELLLSILNPTRQD [ZER1]	3.01 ± 0.26	3.04 ± 0.31	–	–
EELLWRKVYYEVIQLIKTNKKHIH [SMG5]	2.8 ± 0.59	2.4 ± 0.39	–	–
EEMEEEEEEEEEEDEDDDSADMDE [FBXO3]	5.57 ± 0.15	5.59 ± 0.087	–	–
EERFRPLTFHGLILRSQLVTLLVR [CLCN6]	2.79 ± 0.63	2.51 ± 0.36	–	–
EERLKLSPSPSSRVTVSRASSSRS [LMNB1]	4.94 ± 0.15	5.03 ± 0.25	–	–
EFLTKHLRADNAFMLLTQARLFDE [BTBD1]	2.54 ± 0.25	2.18 ± 0.36	–	–
EGAVKMGMPSSLAHRIAAQTLLGT [PYCR3]	3.08 ± 0.53	3.39 ± 0.17	–	–
EGSFNGSEKETMQFLNDRLASYLE [KRT33B]	3.43 ± 0.14	3.34 ± 0.21	–	–
EHGATLAVIDSEKDMNFLKRYAGR [CD69]	3.84 ± 0.34	3.95 ± 0.27	–	–
EIIKVTEQLIEAISNGDFESYTKM [CAMK2A]	2.27 ± 0.53	1.91 ± 0.61	–	–
EKDQEQVVMNLDSRLLIFPLYICC [GMCL1]	2.74 ± 0.75	2.74 ± 0.67	–	–
EKKDLKLEPPEEEIIEGNTKSHIM [NECAB1]	5.46 ± 0.17	5.43 ± 0.14	–	–

Sequence	protein stability index [1]	protein stability index [2]	protein stability index (treatment: DMSO, c terminus: native)	protein stability index (treatment: MLN4924 1 uM, 8 h, c terminus: native)
EKNKHIFPASRWEPYDPEKKWDKY [FAM50A]	3.52 ± 0.2	3.6 ± 0.14	–	–
EKRLEGQEEEEDNRDSSMKLSFRA [CHGA]	5.1 ± 0.75	5.19 ± 0.38	–	–
EKRSRGQVLFDKVCEHLNLLEKDY [EPB41L3]	2.87 ± 0.46	3.01 ± 0.62	–	–
EKSVLKEVSHPFLIRLFWTWHDER [PRKX]	2.56 ± 0.29	2 ± 0.32	–	–
ELEKIGSGEFGSVFKCVKRLDGCI [WEE1]	2.29 ± 0.25	2.35 ± 0.24	–	–
ELGGKNPAIIFEDANLDECIPATV [ALDH8A1]	4.54 ± 0.28	4.72 ± 0.27	–	–
ELKRRVAEELALEQAKKESEDQKR [CHCHD3]	4.14 ± 0.32	4.37 ± 0.082	–	–
ELLLFAVGFIMAGTPMALIVISYI [OR3A1]	2.56 ± 0.033	3.09 ± 0.28	–	–
ELNAIMNKNSTDVKGCSMYVALFP [DCTD]	2.71 ± 0.26	2.35 ± 0.71	–	–
ELQQELSLKDQERVAEVSRVRVEL [LRRC45]	3.5 ± 0.17	3.78 ± 0.24	–	–
ELSEEGAEGRVVGRKDITSILRAP [MOSPD3]	4.82 ± 0.11	4.78 ± 0.18	–	–
ENAAFKDVALVLTVLLEEETLEAS [TOR1AIP2]	2.31 ± 0.33	2.4 ± 0.34	–	–
ENAELESRIQEWYEFQIPYICPDY [KRT36]	2.77 ± 0.46	2.9 ± 0.44	–	–
ENILADNSVNDQTKILVVNAAYFV [SERPINB5]	2.25 ± 0.21	2.34 ± 0.17	–	–
ENSICVGFKRDYYLIRVDGKGSIK [VPS39]	2.16 ± 0.54	2.35 ± 0.37	–	–
ENYLNRCMDQERLRRESTSQKEMD [FCHO1]	4.24 ± 0.28	4.56 ± 0.3	–	–
EPGGPGWLPESDCETVTCCLFSER [SMAD6]	3.96 ± 0.35	4.16 ± 0.42	–	–
EQEDPADYCKGGYHPVKIGDLFNG [SRPK2]	3.9 ± 0.32	3.98 ± 0.47	–	–
EQLRREKIDLENTLEQEQEALVNR [CCDC6]	5.2 ± 0.27	5.42 ± 0.1	–	–
EQLSVLASCLQELFKAHFRGEVLP [INTS3]	2.52 ± 0.42	2.5 ± 1.1	–	–
ERGLKKIRLGIEGYPTYKEKVKKR [BTBD10]	3.59 ± 0.3	3.66 ± 0.33	–	–
ERKGWLAPSPGVKEQAIWKHPQPA [PKD2L1]	3.52 ± 0.21	3.73 ± 0.41	–	–

Sequence	protein stability index [1]	protein stability index [2]	protein stability index (treatment: DMSO, c terminus: native)	protein stability index (treatment: MLN4924 1 uM, 8 h, c terminus: native)
ERLERAVSDRLAPGAPRGNPPKAS [MYCL]	4.84 ± 0.44	5.23 ± 0.26	–	–
ERMPPSGAARSFQEVTEPAVVAVD [PXN]	4.95 ± 0.17	5.29 ± 0.31	–	–
ERRQTLNLISLLALRVLAEQNIIP [TENT5C]	2.26 ± 0.88	2.15 ± 0.24	–	–
ERSMSENAVRQNGQLVRNDSLWHR [MFF]	3.84 ± 0.42	3.69 ± 0.4	–	–
ERYDPNIDQWSMLGDMQTAREGAG [KLHL12]	4.2 ± 0.25	4.33 ± 0.19	–	–
ESESPQSHRAAGSGVSDYDYLDLD [TRIM9]	5.5 ± 0.19	5.35 ± 0.2	–	–
ESGLGHFSLRVHTGCHKKLGPEAR	3.24 ± 0.46	3.32 ± 0.24	–	–
ESIDFDQGELADQDVDPVHNLIEQ [FBXO33]	5.51 ± 0.16	5.22 ± 0.26	–	–
ESPRWLYSQGRLSEAEEALYLIAK [SLC22A15]	2.75 ± 0.21	2.66 ± 0.45	–	–
ESSAKSKINVNEIFYDLVRQINRK [RAP1B]	1.92 ± 0.38	1.96 ± 0.25	–	–
ETKGQINNSIKDLTDGHFENILAD [SERPINB5]	4.84 ± 0.42	4.9 ± 0.32	–	–
ETRVTSGSMEALNLKQLRKRGSIP [PPFIA4]	4.6 ± 0.07	4.75 ± 0.22	–	–
ETTSQQERLQAIAEKRKRQAEIEN [PALM]	4.94 ± 0.14	5.06 ± 0.12	–	–
EVAAKNQSLEGDTTKGTSEMSEKR [MLH1]	5.15 ± 0.26	5.46 ± 0.56	–	–
EVLRMCVAVKKKLQLYFWKDREFH [VPS39]	2.49 ± 0.34	2.55 ± 0.34	–	–
EVLSLGVQVPEAWEELLTMKVEAK [ZSCAN9]	3.53 ± 0.67	3.45 ± 0.22	–	–
EYAWCLVRSKYNDDIRKGIVLLEE [FIS1]	2.13 ± 0.43	2.03 ± 0.26	–	–
EYHQPQAPANVAKIQLRLAGQKRK [LOXL2]	4.34 ± 0.43	4.54 ± 0.4	–	–
FAFSNGYLASLCMCFGPKKVKPAE [SLC29A1]	2 ± 0.36	2.34 ± 0.21	–	–
FAIGVCTGLVGLFVDFFVRLFTQL [CLCN6]	2.65 ± 0.52	2.32 ± 0.56	–	–
FAQRTFDYELLQMLQIVVGVRDSG [PCDHGC5]	3.01 ± 0.53	2.74 ± 0.84	–	–
